{"source": "patent US6027911", "key": {"[1]": {"target": "Met-Arg-Human Proinsulin Analog (B28 Lys, B29 Pro) (human) (UniProt P01308)"}, "[2]": {"target": "Met-Asp-human growth hormone (human) (UniProt P01241)"}}}
{"substance": "bovine dipeptidylaminopeptidase 1 (enzyme)", "values": [{"measurement": "extent of conversion of MR-KPB-hPI to KPB-hPI (reverse phase HPLC)", "setting": "[1]", "value": 98, "unit": "%"}, {"measurement": "human growth hormone (hGH) conversion yield (reverse phase chromatography)", "setting": "[2]", "value": 37, "unit": "%"}]}
